In the DeepSol protein solubility set:

Experiment: soluble on expression in E. coli; label from the status in PepcDB or PDB records

| Sequence | soluble on expression in E. coli |
| --- | --- |
| MTAPPPPLVELPPGSMVERWSITKKLGEGGCGAVYLCTDATGKYALKVEGISEAMQVLKMEVLVLGELTKRGSRHFCKIEDKGRYGSFNYVVMTLVGKSLQDLRKGTAQQCLSLACSLSVGIQSLEALEDLHNIGYLHRDVKPGNYTIGRAELNELRKVYILDFGMARKFTDNNGVIRKPRAAAGFRGTVRYAPIACHKNQELGRKDDVEVWLYMQVELTVGRVPWKEITDMNAVGQAKQAIRNTPEKMFVFPCPANELKEIMKMVDSWDYFADPNYADCYRLMKQTLANCGKPEYPYDWEPGMPLNYMVK | not soluble |
| MTASRPAFLHLSPADTVGIALRALPSGEEALGVTLRADVPLGHKFAVVAMPAGTAVVKYGQVMGVATADIAPGDHVHSHNCAMSDSHSNRADAKGTLHAAPGRQTFQGYLRPDGRVGTRNYIGIMASVNCSSTVCNAIAEAANRTLLPRFPGIDGFAPIVHDQGCGMASAGEGFDALVRVLKGYRDHPNFGGVLIVGLGCEVNQLTLYKRTDWTEERIGIFNIQDVGGSASAVRRALELLEPICAAADQDRRSEQPVSKLVLGMQCGGSDGFSGITANPALGVASDMLVAAGGTSILSETPEIYGAEHLLIARADAETGRRIEGMIDWWRDYAAKNGASLDNNPSPGNKRGGLTTILEKSLGAVAKGGLSPLAGAFAYAEPIRIPGLVYMDSPGYDPVAATGQVASGANLIAFTTGRGSCFGAKPAPSIKLASNSDLARRMPEDMDIDCGVVVEEGVSLEEMGRRIYDLLLDTASGKRSKSEEFGYGDNEFVPWKIGATL | not soluble |
| MTASSDPHVIFVGSGINSLVSAALLATRGKRVLVLERNDRLGGCIRTEELFPGYHHEVMSSWYPLFVGSPGYAELKPALEQAGLAFLCPDYTTGLVWPDGRGLALKQDLNDAVQRLEALAPGDGAALGAMAARLFGPDAALTFGLLGQNPYGWAMLKLLFGQWRQRGTDGLAAFAADALETFRRWSERTLRSDLARALIAPWVLHSGLGPDDAGSALIGKLTFASVVSGGMPVVKGGGSRLVEALARVIEQHGGTLMTGTPVEQVLTEGQGRRRRATGVAVTGGRRLRAQQAVVCNVTPQQLYGRLLPEMPQPLRERAEGYRYGRGDMQIHFALNAPPAWREAELCKVPLVHLTESLEQVCASVTQANNGLLPSRPTLGIGQPTVADPSRAPAGGWILWIQMQELPTRLKGDAAGEIPVPADGRWNEAVREAFADRVQARLERVMPGLAERIVGRRAYSPADLEVLNCNLVGGDPYSGVCSPDQFFWLRPFAGSQGARAHRTPLANVFHIGASTHPGPGLGAGSGFMVAQHLSPR | not soluble |
| MTATPLYCAEPARLDTARRLCERFSLPLIKQRPADGYWLELGSERLELLTTGKHGAVYAEFVEGAARHRREQGGGRGQPVAKAVGLKGAKDLPHVADATAGLGRDSFVLATLGCRVTMVERSPVAAALLADALERAQRDETTRDIAARMTLVHANSRNWLAGLTEAQRPDVVFVDPMFPDTDKKSAAAKKDMQAFQQVIGDDMDSAELLAAAIAAARVRVVVKRPRLGAAIAGVKPSAVLDGKSTRFDLYVIKALASGLEHHHHHH | soluble |
| MTAWLLSLALNLPFLGGPQEYQILVALGCSAPRHVQNGYREMLAHEVLPRLAEKVTTTQVRLTLAPITGRSYTAPARVLETPNPLSTPRFQLEEAKKTFQKEALRTFDELRKRAAAECSRGTEIIGALKAAGERARKPGRILVLAHGFEQSELMNLYDYRLKLEKREVRQGLLQRVKARLGLPNLKDQEVCIAGITAGNDNNANARLTTSIKAFWEELIQASGGRLVGYGTTPRVCPFL | soluble |
| MTAYGHMPGEAIECLSIAVELHKQEVIDAHGQVTIRVGFKIGGGIDQDPTKAPFKYPDSGVYITNVESGSPADVAGLRKHDKILQVNGADFTMMTHDRAVKFIKQSKVLHMLVARADLPPVSLH | not soluble |
| MTCDDWNSYIQVNIYGKTIEGLQQQGVVLESLLNNVGCSKVWIMEGSVCTNPRPESSTHSEESTIEPVVPLSTTLATNKLPRFSTPAIGHSNNNSSKNFTLNLAEKLSEILSDDDKTDEFLENSHQSETSKDDVIKDLLEEMVQTVANSNKPPILLSTTLANVGVPRFSTPIKPQHALNRDFTMNMTEMISEIDSNYEGYELFDDSSNDCTTLTPNCQEVESSFYRALSEAASSIVPYQEGKRRSSRRLSTLSSLKETVKVEPAVSKLTKRRRLTPVECSSETMIPHSQPIPLDTCSDQPIFPNSTHNAIQSDGFSYEQPICEFGDSQLFLSAKSLCTEPNSSIAEDVKPVLTVSDSDITASNRNNIDDHNRVIELSTEV | not soluble |
| MTCEGRRTMTQPISLGHRMSLIDLYDLRMPQRTGTYVLHEENLAIIETGPSPSVPHLLAGLKALHIDPADIRYIIVTHIHLDHAGGVGVLLEHCPNATVIVHPKGKRHLADPSRLIAGAKAVYGEQFDALFDPIVPVPEERLLVKEDGETLVLSAERTLTFYDTPGHANHHFSIYDSYSGGVFTGDTIGVFYPQLQEAGLAFCLPSTSPNQFNPEAMKQSAERLEKLNPTRIYFGHFGALDQPEEAFRQLRFWLPKFVAAGKEVIARHPEAPAAEQAKAVTKLLHNDITAFLNECSIPASSPVYKVIELDLQVCAMGIIDYWRKQRLEHHHHHH | soluble |
| MTDETTQNIKDKTEEELAALLDQTLGEFTATPAPKPRTTDDELDELMASADQEAAQKAAKDFQKMLEQMVTLQEEAMKKAGADPSEGEGEQPLDPNDPEALAMMDALKQLMECSSNVANASNPEEFMAGLDMLRSPNSPMEPFMSMIMQTLASKEVMYPPLKEIFDNYPKYLEDNGAGLDAETKERYEKQFEVLGKICTEFEKQPELAEVQPVDAATQPAPEADPASIEHFEKLGKLLVELQQYGYPPKELVGALPDGWQIDESGLPKVADAAAATEACSIM | soluble |
| MTDIAKLEPTAVWEHFQTLCDIPRPSKHEEQVRDYMKGWAELRGLETVVDKVGNLIIRKPATPGYEDRAGVVLQGHLDMVCQANSGTEHDFFKDPIRPVLKDGWLVAENTTLGADNGIGVALGMAVLSGDDVAHGPVEVLLTLDEEAGMGGALGLETGLLRGQYLINIDTEEWGEFYMGCAGGVDVNVTREYAVEAVPAGFQTASLTIKGLKGGHSGADIHLGRGNANKILIRLLRELEAETELRLSSLQGGTARNALSREAFAVVAYPTADAAKVAAKLDAFQALMRFELAGVDEGVSVLSEAAPAAGVLARADQDVILAALHAAPHGVKRMSQRVEGVVETSNNLGVVSVADGKVFANLMVRSLLDSGTWMLAREAESLFKLAAFKVEMEGGYPGWAPNPQSKLLALFKDVYRREFGAEAEVQVIHAGLECGILGSKYPNLDMVSFGPNIRGAHAPGERVEVESVGKAWQLLQAVLKAIPARLEHHHHHH | soluble |
| MTDLSRMQGFADSAIPALEGRFFRPPLPEGYVPRSRLCQRLNEGLGGRLLLVCAPAGFGKSSLAVEFCQGLPDQWQNVWLGLSARDSEPGRFLERLLGSLQQFFPQLGAQAMGLLKMRQRHQPFAFEEWLDSLLDELAMHLMLSKPLLLVLDDYHLAQGPVLDRCLQFFLNHLPAGLVVMVTSRQRPDWHLARLRLTRQLLEINEQDLRLTQAESMAVLDRHSRSLDSEALQSLILRSEGWVAGLRFWLLAASEAGDESALSQALRGSEVLIREYLLEEVIDCLPADVQAFLYDTACLERFCAELCNAARDSHDSVEMLRYLQAHQVFLVPLDEQGRWFRYHHLFSDLLRARQTADAQTTRLHLNACRWFSAQGQLDEAVEQALRAGHLDVAANLVQNLSEEQLLAEQNVGMLLRWKMDLPDDLLTSTPRLIVLYAWALGLACQLDAAEELANQLSRFLPAPSATAQKSMLAQWLALSGIIARGRGDSEKTERYCREALLTLPQRRYGQRLVCLSTLANLAVAEGDLWQARVLNRDALELAQRVANPLFEALAHYDRARVLQARGEIIRALEEVRQGQQRLKGLSTVRLYAVRARLTLYEGYLLALRLQVDEGRALLLAGLAEARACRDISVLIGHCVIATMEGFAGRFAEAFAELAEAERLMHIWDVPPIYYLAMITLVKCELWLIQGRIDLAEAWLLRLTQTYNGGLGAAAPECHPQLSQHIELQRAVLERIQGDEVASEQRLQALEQRAQEVGAQLLRLIAMTQQIALLLNQGRQDEARTLLIRSVQASAGGALLPFRVLLAEHSQWLHEQLQLAPSCKLCNALREKFPACFKPAAPEPAHGSDCLSVRELGVLRLIAQGCSNQEISEQLFISLHTVKTHASHINSK | not soluble |
| MTDLVAVWDVALSDGVHKIEFEHGTTSGKRVVYVDGKEEIRREWMFKLVGKETFFVGAAKTKATINIDAISGFAYEYTLEIDGKSLKKYMENRSKTTSTWVLRLDGEDLRVVLEKDTMDVWCNGQKMETAGEFVDDGTETHFSVGNHGCYIKAVSSRKRKEGIIHTLIVDNREIPELTQ | soluble |
| MTDQATPNLPSRDFDSTAAFYERLGFGIVFRDAGWMILQRGDLMLEFFAHPGLDPLASWFSCCLRLDDLAEFYRQCKSVGIQETSSGYPRIHAPELQGWGGTMAALVDPDGTLLRLIQNELLAGIS | soluble |
| MTDSELMQLSEQVGQALKARGATVTTAESCTGGWVAKVITDIAGSSAWFERGFVTYSNEAKAQMIGVREETLAQHGAVSEPVVVEMAIGALKAARADYAVSISGIAGPDGGSEEKPVGTVWFAFATARGEGITRRECFSGDRDAVRRQATAYALQTLWQQFLQNT | not soluble |
| MTDSPSPIDSSFDASDVATPCTVIAAKISLRNRNGLEEDQENLDSFDAFTETHETQESKNIAHGEHEEDVSNIYVDDFSKEFGDTVSSVMEPLPKPLTFARTITKVYCHLDDQEHPYMVEVHVPPDCITLRDVKRKLMRTNFKYYCIALDPDTGLEVKAEVRDDSRRLYPLKNGRFELYLLTVEGSVHSDTSSGRHRRKQDGSSKGSSGSREYLRAAHHYDNPTPFSDDESQASSLPTYVKKAHAYNRKHAPQAYERHLPHMKHNNRHNHHRQNHYEESTFDVTTESDDHYRDGVTYYDEDEDDSRSINTDLTSVSQVHLKQKWRQQQKEMRNKWKRMPSISTASSSFSSITESSMGLEVITVRLNLETIPLGMTPSGHTNARGDAGLYVGDIQDRGAVALDGRIDIGDMIVGINEISLGNYSNKEAVQLLREAVQRQYLTLTIAKTGDPKQNAFPRNPRAEPIRPIDPNEWVKHATNAMKAMPSISEGSGLDIKDRYWFKIPIPMSFLGTDLVEWLVKHVQGLETKKKAREFAEEMLKLGYIRPGVGKQSFTKECYYVMGDECADYTQLRGPDGGYKYPQSHASSASGHSSNNLIFPPSMYPPQPPTAGAVQSSKFEGREMIREVKRVGVVEEAREGTSNYHGSLHHSAVGLV | soluble |
| MTDSRTHLRLQIRQRRQSLSAFEQQTASQQLIHTFASLPEVTAAQRIALYLANDGELNTQPLIEWLWQQGKQVYLPVLHPFAKGHLLFLHYHTHTPMNKNRYGIAEPKLDQRLICPVRELDIIGTPLVAFDQSGQRLGMGGGYYDRTLAPWFKTQQGAMPIGLAHDCQQVEQLPTASWDIPLRKIVTPSKVWQWLEHHHHHH | not soluble |
| MTEALELGDCLLSGAVGLVVKRRSGIAEDVARLVVKELVESGVEVLVDETVDYPSLSGFPRFSISRDPPGRVVVVGGDGTLLRTFLRLGERESPLFMTIKAGKKGFLLDVERYEAVERLRDFLEGRFREVVYPRYRVYLEGEARACMFNDTAVTANNAKMARVHVFVDGDLAMNIDGDGVVVSTTAGSTAYSLSGGGPIIDPRLDVIVLTPLNPVQLFLRSIVVPSGSRVTVEASVYSNPLVVNIDGQYVYELEPGGIVDIERCGSGVRIARFRWWEDYYERLYTRLLAYWAAALEHHHHHH | not soluble |
